Article PMC3323580

Key:
Test in all cases: SPR; C3b (1620 RU), C4b (1518 RU) and C1q (2125 RU) amine-coupled on three flow cells of one CM5 chip; CR1 fragments flowed at 30 µl/min, Biacore T100, 25°C, HBS-EP pH 7.4 (10 mM Hepes, 150 mM saline, 3 mM EDTA, 0.05% polysorbate 20); steady-state fit, one-to-one model; duplicates
[1] = molecular target: C4b, complement-activation fragment of C4
[2] = molecular target: C3b, complement-activation fragment of C3
[3] = molecular target: C1q, classical complement pathway protein (UniProt P02745)
C1q, classical complement pathway protein, sequence (P02745 23-245, chain 1 of 3): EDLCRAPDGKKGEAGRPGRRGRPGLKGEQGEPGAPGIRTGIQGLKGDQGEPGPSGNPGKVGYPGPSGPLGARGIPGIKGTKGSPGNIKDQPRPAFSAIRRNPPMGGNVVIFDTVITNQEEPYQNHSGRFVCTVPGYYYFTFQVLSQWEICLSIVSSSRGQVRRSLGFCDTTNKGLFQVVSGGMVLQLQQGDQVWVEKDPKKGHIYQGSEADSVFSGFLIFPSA
C1q, classical complement pathway protein, sequence (P02746 28-253, chain 2 of 3, further chain): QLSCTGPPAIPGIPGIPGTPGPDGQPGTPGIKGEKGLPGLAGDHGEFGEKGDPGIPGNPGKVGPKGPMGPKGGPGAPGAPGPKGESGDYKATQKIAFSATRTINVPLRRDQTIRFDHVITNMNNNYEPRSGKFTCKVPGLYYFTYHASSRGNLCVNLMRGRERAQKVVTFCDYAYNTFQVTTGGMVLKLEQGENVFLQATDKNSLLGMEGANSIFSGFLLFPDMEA
C1q, classical complement pathway protein, sequence (P02747 29-245, chain 3 of 3, further chain): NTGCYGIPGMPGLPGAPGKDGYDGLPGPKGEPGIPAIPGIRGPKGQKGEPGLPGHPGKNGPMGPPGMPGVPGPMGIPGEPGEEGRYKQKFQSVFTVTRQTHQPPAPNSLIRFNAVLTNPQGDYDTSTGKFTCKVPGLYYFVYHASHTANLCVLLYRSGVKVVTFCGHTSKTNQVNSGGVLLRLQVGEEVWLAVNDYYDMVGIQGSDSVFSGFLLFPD

Row | Substance | Kd [1] [µM] | Kd [2] [µM] | Kd [3] [µM]
1 | CR1 15–25(EG), complement receptor-type 1 CCPs 15–25, Glu1590/Gly1601 variant (domain or fragment) | 5 | 0.8 | 5.1
2 | CR1 1–3 (site 1), complement receptor-type 1 CCPs 1–3 (domain or fragment) | 11.2 | 38 | 30.9
3 | CR1 15–25(KG), complement receptor-type 1 CCPs 15–25, Lys1590/Gly1601 variant (domain or fragment) | 5.2 | 1.05 | 5.5
4 | CR1 15–25(KR), complement receptor-type 1 CCPs 15–25, Lys1590/Arg1601 variant (domain or fragment) | 5.1 | 0.99 | 5.7
5 | CR1 15–25(ER), complement receptor-type 1 CCPs 15–25, Glu1590/Arg1601 variant (domain or fragment) | 5.3 | 1.09 | 5.7

Stronger by Kd [1], values ahead:

Row | Kd [1] [µM] | Kd [2] [µM] | Kd [3] [µM] | Substance
6 | 3.2 | 1.06 | 0.82 | CR1 15–17 (site 2), complement receptor-type 1 CCPs 15–17 (domain or fragment)
7 | 0.91 | 0.53 |  | soluble CR1 (sCR1), full-length ectodomain of complement receptor-type 1 (from UniProt P17927 42-1971)
